Measured values from doi:10.1101/2021.04.29.441998 (bioRxiv, 2021).

Columns and labels:
[1] = biological target: the molecule itself; assay: cryo-EM structure
[2] = biological target: T1, Melbournevirus histone doublet MV-H2B-H2A (MEL_369) (Melbournevirus, UniProt A0A097I2B5 1-269); assay: cryo-EM structure
T1 sequence (looked up): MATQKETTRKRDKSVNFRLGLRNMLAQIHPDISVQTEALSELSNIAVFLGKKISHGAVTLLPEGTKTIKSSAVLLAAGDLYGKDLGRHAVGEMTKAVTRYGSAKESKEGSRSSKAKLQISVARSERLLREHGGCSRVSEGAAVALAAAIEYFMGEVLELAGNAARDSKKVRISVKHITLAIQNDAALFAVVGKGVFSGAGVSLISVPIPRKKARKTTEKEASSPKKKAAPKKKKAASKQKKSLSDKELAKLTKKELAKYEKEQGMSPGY

B1: Melbournevirus histone doublet MV-H4-H3 (MEL_368) (natural protein, UniProt A0A097I2D0 1-216, looked up)
chain: MSKAGKKVKAQQHGHLADHVSVGETQIPKASTQHLLRKAGSLSAAGDTEVPIRGFVHMKLHKLVQKSLLAMQLAKRKTIMKSDVKKAAELMHLPVFAIPTKDSGAKGSVFLSCRQKGAGSAGTGSETNSQEVRSQMKSTCLIIPKERFRTMAKEISKKEGHDVHIAEAALDMLQVIVESCTVRLLEKALVITYSGKRTRVTSKDIETAFMLEHGPL
B1: binds [1]; binds [2].
